According to article doi:10.1101/2021.07.08.451649 (bioRxiv, 2021):

Biological target: SARS-CoV-2 HexaPro spike glycoprotein (SARS-CoV-2, ancestral (Wuhan-Hu-1), …, stabilised)
Experiment: cryo-EM structure

B1: PVI.V6-14 Fab (Fab, V domains shown)
VH: QVQLQESGPGLVKPSETLSLTCTVSGGSISSSSYYWGWIRQPPGKGLEWIGSIYYSGSTYYNPSLKSRVTISVDTSKNQFSLKLSSVTAADTAVYYCARCRPEYYFGSGSYLDFDY
VL: DIQMTQSPSSVSASVGDRVTITCRASQGISSWLAWYQQKPGKAPKLLIYAASSLQSGVPSRFSGSGSGTDFTLTISSLQPEDFATYYCQQANSFPLTFGGGTKVEIK
For B1, the “stoichiometry N” value was 2 Fabs per spike trimer.
